Consider five molecules from patent publication US20140087995A1 (published 2014).

Numbered stars: 1 amine (or outer) side, 2 acyl side, 3 side chain; on linkers, the order of the positions; unused ones are H or OH. Bridge positions count the residues as written; N and C are the ends. Side chains are listed from the residue outwards. Ends that are not written are not given here. * marks the point of attachment. C20 diacid = O=C(O)CCCCCCCCCCCCCCCCCCC(=O)*; γGlu = O=C(O)[C@H](CCC(=O)[*:2])N[*:1]

Experiment [1] addresses T1, human calcitonin receptor (human, UniProt P30988 25-474).
T1 construct: whole, on cells; Used as cell membranes; also called hCTR; hCT
T1 sequence (looked up): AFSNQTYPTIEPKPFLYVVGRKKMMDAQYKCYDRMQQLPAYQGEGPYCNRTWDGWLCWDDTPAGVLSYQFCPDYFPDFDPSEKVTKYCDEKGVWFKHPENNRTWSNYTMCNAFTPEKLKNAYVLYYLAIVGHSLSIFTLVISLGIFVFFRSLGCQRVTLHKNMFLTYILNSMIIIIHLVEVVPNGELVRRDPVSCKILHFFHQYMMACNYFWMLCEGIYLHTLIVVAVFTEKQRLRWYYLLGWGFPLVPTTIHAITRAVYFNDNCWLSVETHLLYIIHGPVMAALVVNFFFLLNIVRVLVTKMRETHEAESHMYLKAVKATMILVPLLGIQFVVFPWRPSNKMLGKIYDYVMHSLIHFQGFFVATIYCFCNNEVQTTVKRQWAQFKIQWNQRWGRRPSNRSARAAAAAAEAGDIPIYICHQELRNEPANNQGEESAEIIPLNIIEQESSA
Put plainly: SPA competition on BHK cell membranes, 125I-calcitonin as radioligand (Assay VII). The essentials:
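BHK hCTR membranes 35 ng/μL + SPA beads 0.05 mg/well; buffer 50 mM Hepes pH 7.4, 1 mM CaCl2, 5 mM MgCl₂, 0.1% OA, 0.02% Tween20. 120 min, 25° C., shaking. Scintillation count; IC50 by one-site binding competition.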

In experiment [2] the target is T1, human calcitonin receptor. Put plainly: ratio of hCTR IC50 to hAmylin-R IC50 (reference: human amylin receptor). The procedure, abridged: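 Competition binding by SPA uses membrane preparations (35 ng/μL final) in pH 7.4 Hepes buffer with 1 mM CaCl2 and 5 mM MgCl₂. Incubation lasts 120 min at 25° C, and IC₅₀ comes from one-site fitting.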

B1: N^ε1-[(4S)-4-carboxy-4-[[(4S)-4-carboxy-4-(19-carboxynonadecanoylamino)butanoyl]amino]butanoyl]-[Glu14,Arg17,Pro21,Pro27,His34]-h-amylin (peptide)
peptide: K([γGlu-γGlu-C20 diacid])CNTATCATQRLAEFLRHSSPNFGAIPSSTNVGHNTY-NH2
modifications: disulfide 2-7; N-terminus assumed
SMILES: CC[C@H](C)[C@H](NC(=O)[C@H](C)NC(=O)CNC(=O)[C@H](Cc1ccccc1)NC(=O)[C@H](CC(N)=O)NC(=O)[C@@H]1CCCN1C(=O)[C@H](CO)NC(=O)[C@H](CO)NC(=O)[C@H](Cc1c[nH]cn1)NC(=O)[C@H](CCCNC(=N)N)NC(=O)[C@H](CC(C)C)NC(=O)[C@H](Cc1ccccc1)NC(=O)[C@H](CCC(=O)O)NC(=O)[C@H](C)NC(=O)[C@H](CC(C)C)NC(=O)[C@H](CCCNC(=N)N)NC(=O)[C@H](CCC(N)=O)NC(=O)[C@@H](NC(=O)[C@H](C)NC(=O)[C@@H]1CSSC[C@H](NC(=O)[C@@H](N)CCCCNC(=O)CC[C@H](NC(=O)CC[C@H](NC(=O)CCCCCCCCCCCCCCCCCCC(=O)O)C(=O)O)C(=O)O)C(=O)N[C@@H](CC(N)=O)C(=O)N[C@@H]([C@@H](C)O)C(=O)N[C@@H](C)C(=O)N[C@@H]([C@@H](C)O)C(=O)N1)[C@@H](C)O)C(=O)N1CCC[C@H]1C(=O)N[C@@H](CO)C(=O)N[C@@H](CO)C(=O)N[C@H](C(=O)N[C@@H](CC(N)=O)C(=O)N[C@H](C(=O)NCC(=O)N[C@@H](Cc1c[nH]cn1)C(=O)N[C@@H](CC(N)=O)C(=O)N[C@H](C(=O)N[C@@H](Cc1ccc(O)cc1)C(N)=O)[C@@H](C)O)C(C)C)[C@@H](C)O
notes: also called compound 87
Take B1: the IC50 in experiment [1] is 22.5 nM. Also, in experiment [2], the “Ratio hCT/hAmylin binding” value was 35.6.

B2: N^ε1-[(4S)-4-carboxy-4-[[(4S)-4-carboxy-4-(19-carboxynonadecanoylamino)butanoyl]amino]butanoyl]-[Glu14,Arg17,Pro21,Pro27,Pro34,Glu35]-h-amylin (peptide)
peptide: K([γGlu-γGlu-C20 diacid])CNTATCATQRLAEFLRHSSPNFGAIPSSTNVGPETY-NH2
modifications: disulfide 2-7; N-terminus assumed
SMILES: CC[C@H](C)[C@H](NC(=O)[C@H](C)NC(=O)CNC(=O)[C@H](Cc1ccccc1)NC(=O)[C@H](CC(N)=O)NC(=O)[C@@H]1CCCN1C(=O)[C@H](CO)NC(=O)[C@H](CO)NC(=O)[C@H](Cc1c[nH]cn1)NC(=O)[C@H](CCCNC(=N)N)NC(=O)[C@H](CC(C)C)NC(=O)[C@H](Cc1ccccc1)NC(=O)[C@H](CCC(=O)O)NC(=O)[C@H](C)NC(=O)[C@H](CC(C)C)NC(=O)[C@H](CCCNC(=N)N)NC(=O)[C@H](CCC(N)=O)NC(=O)[C@@H](NC(=O)[C@H](C)NC(=O)[C@@H]1CSSC[C@H](NC(=O)[C@@H](N)CCCCNC(=O)CC[C@H](NC(=O)CC[C@H](NC(=O)CCCCCCCCCCCCCCCCCCC(=O)O)C(=O)O)C(=O)O)C(=O)N[C@@H](CC(N)=O)C(=O)N[C@@H]([C@@H](C)O)C(=O)N[C@@H](C)C(=O)N[C@@H]([C@@H](C)O)C(=O)N1)[C@@H](C)O)C(=O)N1CCC[C@H]1C(=O)N[C@@H](CO)C(=O)N[C@@H](CO)C(=O)N[C@H](C(=O)N[C@@H](CC(N)=O)C(=O)N[C@H](C(=O)NCC(=O)N1CCC[C@H]1C(=O)N[C@@H](CCC(=O)O)C(=O)N[C@H](C(=O)N[C@@H](Cc1ccc(O)cc1)C(N)=O)[C@@H](C)O)C(C)C)[C@@H](C)O
With B2, the IC50 in experiment [1] came out at 2.13 nM. Besides, the “Ratio hCT/hAmylin binding” value in experiment [2] was determined as 17.6.

B3: N^ε1N^ε1-[(4S)-4-carboxy-4-(19-carboxynonadecanoylamino)butanoyl]-[His14,Arg17,Pro21,Pro27,Pro34]-h-amylin (peptide)
peptide: K([γGlu-C20 diacid])CNTATCATQRLAHFLRHSSPNFGAIPSSTNVGPNTY-NH2
modifications: disulfide 2-7; N-terminus assumed
SMILES: CC[C@H](C)[C@H](NC(=O)[C@H](C)NC(=O)CNC(=O)[C@H](Cc1ccccc1)NC(=O)[C@H](CC(N)=O)NC(=O)[C@@H]1CCCN1C(=O)[C@H](CO)NC(=O)[C@H](CO)NC(=O)[C@H](Cc1c[nH]cn1)NC(=O)[C@H](CCCNC(=N)N)NC(=O)[C@H](CC(C)C)NC(=O)[C@H](Cc1ccccc1)NC(=O)[C@H](Cc1c[nH]cn1)NC(=O)[C@H](C)NC(=O)[C@H](CC(C)C)NC(=O)[C@H](CCCNC(=N)N)NC(=O)[C@H](CCC(N)=O)NC(=O)[C@@H](NC(=O)[C@H](C)NC(=O)[C@@H]1CSSC[C@H](NC(=O)[C@@H](N)CCCCNC(=O)CC[C@H](NC(=O)CCCCCCCCCCCCCCCCCCC(=O)O)C(=O)O)C(=O)N[C@@H](CC(N)=O)C(=O)N[C@@H]([C@@H](C)O)C(=O)N[C@@H](C)C(=O)N[C@@H]([C@@H](C)O)C(=O)N1)[C@@H](C)O)C(=O)N1CCC[C@H]1C(=O)N[C@@H](CO)C(=O)N[C@@H](CO)C(=O)N[C@H](C(=O)N[C@@H](CC(N)=O)C(=O)N[C@H](C(=O)NCC(=O)N1CCC[C@H]1C(=O)N[C@@H](CC(N)=O)C(=O)N[C@H](C(=O)N[C@@H](Cc1ccc(O)cc1)C(N)=O)[C@@H](C)O)C(C)C)[C@@H](C)O
notes: also called compound 67
Turning to B3, the concentration for half-maximal inhibition (IC50) in experiment [1] came to 4.63 nM. Besides, in experiment [2], the “Ratio hCT/hAmylin binding” value is 51.6.

B4: N^ε1-[(4S)-4-carboxy-4-[[(4S)-4-carboxy-4-(19-carboxynonadecanoylamino)butanoyl]amino]butanoyl]-[His14,Arg17,Pro21,Pro27]-h-amylin (peptide)
peptide: K([γGlu-γGlu-C20 diacid])CNTATCATQRLAHFLRHSSPNFGAIPSSTNVGSNTY-NH2
modifications: disulfide 2-7; N-terminus assumed
SMILES: CC[C@H](C)[C@H](NC(=O)[C@H](C)NC(=O)CNC(=O)[C@H](Cc1ccccc1)NC(=O)[C@H](CC(N)=O)NC(=O)[C@@H]1CCCN1C(=O)[C@H](CO)NC(=O)[C@H](CO)NC(=O)[C@H](Cc1c[nH]cn1)NC(=O)[C@H](CCCNC(=N)N)NC(=O)[C@H](CC(C)C)NC(=O)[C@H](Cc1ccccc1)NC(=O)[C@H](Cc1c[nH]cn1)NC(=O)[C@H](C)NC(=O)[C@H](CC(C)C)NC(=O)[C@H](CCCNC(=N)N)NC(=O)[C@H](CCC(N)=O)NC(=O)[C@@H](NC(=O)[C@H](C)NC(=O)[C@@H]1CSSC[C@H](NC(=O)[C@@H](N)CCCCNC(=O)CC[C@H](NC(=O)CC[C@H](NC(=O)CCCCCCCCCCCCCCCCCCC(=O)O)C(=O)O)C(=O)O)C(=O)N[C@@H](CC(N)=O)C(=O)N[C@@H]([C@@H](C)O)C(=O)N[C@@H](C)C(=O)N[C@@H]([C@@H](C)O)C(=O)N1)[C@@H](C)O)C(=O)N1CCC[C@H]1C(=O)N[C@@H](CO)C(=O)N[C@@H](CO)C(=O)N[C@H](C(=O)N[C@@H](CC(N)=O)C(=O)N[C@H](C(=O)NCC(=O)N[C@@H](CO)C(=O)N[C@@H](CC(N)=O)C(=O)N[C@H](C(=O)N[C@@H](Cc1ccc(O)cc1)C(N)=O)[C@@H](C)O)C(C)C)[C@@H](C)O
notes: also called compound 92
Regarding B4, the IC50 in experiment [1] stood at 26 nM. The “Ratio hCT/hAmylin binding” value in experiment [2] was determined as 145.

B5: N^ε1-[(4S)-4-carboxy-4-[[(4S)-4-carboxy-4-(19-carboxynonadecanoylamino)butanoyl]amino]butanoyl]-[Glu14,Arg17,Pro21,Pro27,Pro34,Arg35]-h-amylin (peptide)
peptide: K([γGlu-γGlu-C20 diacid])CNTATCATQRLAEFLRHSSPNFGAIPSSTNVGPRTY-NH2
modifications: disulfide 2-7; N-terminus assumed
SMILES: CC[C@H](C)[C@H](NC(=O)[C@H](C)NC(=O)CNC(=O)[C@H](Cc1ccccc1)NC(=O)[C@H](CC(N)=O)NC(=O)[C@@H]1CCCN1C(=O)[C@H](CO)NC(=O)[C@H](CO)NC(=O)[C@H](Cc1c[nH]cn1)NC(=O)[C@H](CCCNC(=N)N)NC(=O)[C@H](CC(C)C)NC(=O)[C@H](Cc1ccccc1)NC(=O)[C@H](CCC(=O)O)NC(=O)[C@H](C)NC(=O)[C@H](CC(C)C)NC(=O)[C@H](CCCNC(=N)N)NC(=O)[C@H](CCC(N)=O)NC(=O)[C@@H](NC(=O)[C@H](C)NC(=O)[C@@H]1CSSC[C@H](NC(=O)[C@@H](N)CCCCNC(=O)CC[C@H](NC(=O)CC[C@H](NC(=O)CCCCCCCCCCCCCCCCCCC(=O)O)C(=O)O)C(=O)O)C(=O)N[C@@H](CC(N)=O)C(=O)N[C@@H]([C@@H](C)O)C(=O)N[C@@H](C)C(=O)N[C@@H]([C@@H](C)O)C(=O)N1)[C@@H](C)O)C(=O)N1CCC[C@H]1C(=O)N[C@@H](CO)C(=O)N[C@@H](CO)C(=O)N[C@H](C(=O)N[C@@H](CC(N)=O)C(=O)N[C@H](C(=O)NCC(=O)N1CCC[C@H]1C(=O)N[C@@H](CCCNC(=N)N)C(=O)N[C@H](C(=O)N[C@@H](Cc1ccc(O)cc1)C(N)=O)[C@@H](C)O)C(C)C)[C@@H](C)O
notes: also called compound 110
With B5, in experiment [1], the IC50 stood at 17.5 nM. For the same molecule, in experiment [2], the “Ratio hCT/hAmylin binding” value is 53.6.

As a reminder, the IC50 is the concentration that inhibits the measured activity by half.
